Assay results reported in article PMC6220479.

Experiments:
[1] = target: TIM-3 expressed on activated human T cells (human (endogenous in activated T cells)) (UniProt Q8TDQ0)
[2] = target: TIM-3 expressed on activated human T cells (human (endogenous in activated T cells)) (UniProt Q8TDQ0); assay: flow cytometry on cells; FACS on activated human T cells
[3] = target: TIM-3 expressed on activated human T cells (human (endogenous in activated T cells)) (UniProt Q8TDQ0); assay: Scatchard analysis; on activated human T cells

Sequence of UniProt Q8TDQ0 (Q8TDQ0 22-301): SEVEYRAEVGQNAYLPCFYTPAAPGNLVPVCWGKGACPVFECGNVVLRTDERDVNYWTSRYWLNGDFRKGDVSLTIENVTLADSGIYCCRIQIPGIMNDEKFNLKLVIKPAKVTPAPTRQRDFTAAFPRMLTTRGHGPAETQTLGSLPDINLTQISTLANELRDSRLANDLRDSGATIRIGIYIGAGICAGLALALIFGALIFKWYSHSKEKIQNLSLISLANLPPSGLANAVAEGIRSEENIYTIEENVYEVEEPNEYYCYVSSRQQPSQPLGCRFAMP

EC50 in a human tumor TIL assay (IFN-gamma; TIL co-cultured with irradiated CHO-OKT3 cells) [1]: 1.2 nM
EC50 [2]: 0.1 nM
Kd [3]: 0.16 nM
Substance: BMS-986258, fully human immunoglobulin (Ig)G1 anti-TIM-3 monoclonal antibody
